Assay results as given in paper PMC3079584, “A Cytoplasmic Complex Mediates Specific mRNA Recognition and Localization in Yeast”.

Legend:
[1] = biological target: She2p (T191A D192A);She3p (Saccharomyces cerevisiae;Saccharomyces …, UniProt P36068;P38272 1-246;1-425, T191A;D192A|); experiment: EMSA; synergism +++; EMSA: 20 mM HEPES pH 7.8, 200 mM NaCl, 2 mM MgCl2, 2 mM DTT, 4% glycerol, 30 or 100 ug/ml yeast tRNA, 5 nM RNA, 20 C; filter binding: 20 mM HEPES pH 7.4-7.5 (7.9 with She3p), 150 mM NaCl, 2 mM MgCl2, 2 mM DTT, 30 ug/ml yeast tRNA, 0.5 nM RNA; pull-down: HNMD buffer, 4 C; conditions: protein: recombinant;recombinant; tags: GST tag (PreScission-cleaved);C-terminal His6; chain copies: 4;2; label: 32P; stem-loop
She2p (T191A D192A);She3p, sequence (P36068 whole entry T191A/D192A, one chain of several): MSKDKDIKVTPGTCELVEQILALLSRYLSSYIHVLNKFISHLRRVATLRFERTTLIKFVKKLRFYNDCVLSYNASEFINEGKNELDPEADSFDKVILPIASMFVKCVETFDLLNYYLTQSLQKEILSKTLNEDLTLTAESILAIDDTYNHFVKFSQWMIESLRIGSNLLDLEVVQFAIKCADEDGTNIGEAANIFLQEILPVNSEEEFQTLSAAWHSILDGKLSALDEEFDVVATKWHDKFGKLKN

[2] = biological target: She2p (E183A D184A G185A);She3p (Saccharomyces cerevisiae;Saccharomyces …, UniProt P36068;P38272 1-246;1-425, E183A;D184A;G185A|); experiment: as above; conditions: protein: recombinant;recombinant; tags: GST tag (PreScission-cleaved);C-terminal His6; chain copies: 4;2; label: 32P; stem-loop
She2p (E183A D184A G185A);She3p, sequence (P36068 whole entry E183A/D184A/G185A, one chain of several): as the sequence (P36068 whole entry T191A/D192A, one chain of several) above, with E183A, D184A, G185A, A191T, A192D counted along it

[3] = biological target: She2p;She3p (S343E S361E) (Saccharomyces cerevisiae;Saccharomyces …, UniProt P36068;P38272 1-246;1-425, |S343E;S361E); experiment: as above; conditions: protein: recombinant;recombinant; tags: GST tag (PreScission-cleaved);C-terminal His6; chain copies: 4;2; label: 32P; stem-loop
She2p;She3p (S343E S361E), sequence (P36068 whole entry, stated change not applied, one chain of several): as the sequence (P36068 whole entry T191A/D192A, one chain of several) above, with A191T, A192D counted along it

She2p;She3p (R341E) = She2p;She3p (R341E) (Saccharomyces cerevisiae;Saccharomyces …, UniProt P36068;P38272 1-246;1-425, |R341E); experiment: as above; conditions: protein: recombinant;recombinant; tags: GST tag (PreScission-cleaved);C-terminal His6; chain copies: 4;2; label: 32P; stem-loop
She2p;She3p (R341E), sequence (P36068 whole entry, stated change not applied, one chain of several): as the sequence (P36068 whole entry T191A/D192A, one chain of several) above, with A191T, A192D counted along it

She3p (334-425) = biological target: T1, She3p (334-425) (Saccharomyces cerevisiae, UniProt P38272 334-425); experiment: EMSA; +++; EMSA: 20 mM HEPES pH 7.8, 200 mM NaCl, 2 mM MgCl2, 2 mM DTT, 4% glycerol, 30 or 100 ug/ml yeast tRNA, 5 nM RNA, 20 C; filter binding: 20 mM HEPES pH 7.4-7.5 (7.9 with She3p), 150 mM NaCl, 2 mM MgCl2, 2 mM DTT, 30 ug/ml yeast tRNA, 0.5 nM RNA; pull-down: HNMD buffer, 4 C; conditions: protein: recombinant; tags: MBP and His6 (EMSA); His6 (SEC, cross-linking); label: 32P; stem-loop
T1 sequence: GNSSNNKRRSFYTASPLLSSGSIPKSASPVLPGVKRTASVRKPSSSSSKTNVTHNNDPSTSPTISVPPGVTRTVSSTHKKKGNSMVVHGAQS

She3p (S343E S361E) = biological target: T2, She3p (S343E S361E) (Saccharomyces cerevisiae, UniProt P38272 1-425, S343E;S361E); experiment: as above; conditions: protein: recombinant; tags: C-terminal His6; label: 32P; stem-loop
T2 sequence: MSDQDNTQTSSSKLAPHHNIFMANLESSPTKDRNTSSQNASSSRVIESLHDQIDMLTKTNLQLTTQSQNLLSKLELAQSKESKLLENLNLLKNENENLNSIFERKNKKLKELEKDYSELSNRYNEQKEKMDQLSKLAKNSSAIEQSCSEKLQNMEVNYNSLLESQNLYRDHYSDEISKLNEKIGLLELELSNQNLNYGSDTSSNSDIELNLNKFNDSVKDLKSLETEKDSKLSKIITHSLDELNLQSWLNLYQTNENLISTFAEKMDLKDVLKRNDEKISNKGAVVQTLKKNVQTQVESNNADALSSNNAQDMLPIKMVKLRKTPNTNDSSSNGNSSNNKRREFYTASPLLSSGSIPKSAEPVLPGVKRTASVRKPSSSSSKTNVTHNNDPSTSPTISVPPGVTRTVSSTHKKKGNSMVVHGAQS

She2p;She3p = She2p;She3p (Saccharomyces cerevisiae;Saccharomyces …, UniProt P36068;P38272 1-246;1-425, |); experiment: EMSA; She3p constant 25 nM, She2p varied; EMSA: 20 mM HEPES pH 7.8, 200 mM NaCl, 2 mM MgCl2, 2 mM DTT, 4% glycerol, 30 or 100 ug/ml yeast tRNA, 5 nM RNA, 20 C; filter binding: 20 mM HEPES pH 7.4-7.5 (7.9 with She3p), 150 mM NaCl, 2 mM MgCl2, 2 mM DTT, 30 ug/ml yeast tRNA, 0.5 nM RNA; pull-down: HNMD buffer, 4 C; conditions: protein: recombinant;recombinant; tags: GST tag (PreScission-cleaved);C-terminal His6; chain copies: 4;2; label: 32P; stem-loop
She2p;She3p, sequence (P36068 whole entry, one chain of several): as the sequence (P36068 whole entry T191A/D192A, one chain of several) above, with A191T, A192D counted along it

B1: ASH1 E3-118 (structured_RNA)
RNA: GAGACAGUAGAGAAUUGAUACAUGGAUAACUGAAUCUCUUUCAACUAAUAAGAGACAUUAUCACGAAACAAUUGUACAUUUCUCUCCUUGUCUGUGCUAAAUAAACUACAAAUAAAAA
binding result [1]: binds | binding result [2]: binds | binding result [3]: binds | binding result (She2p;She3p (R341E)): binds | binding result (She3p (334-425)): binds | binding result (She3p (S343E S361E)): binds | Kd (She2p;She3p): ~25 nM
